In patent publication US10385380B2, “Personalized protease assay to measure protease activity in neoplasms” (The Regents of the University of California, priority 2014, dated 2019):
“Also recorded” adds a separate entry of the source. Where two headings read alike, the source gives them in different places. Where no end group is shown, it is not given here. [ ]: non-standard residue; d: D form. hPhe = N[C@@H](CCc1ccccc1)C(=O)O

Tests used:
MMP-14 = MMP-14 (Homo sapiens, UniProt P50281); experiment: Cleavage of ACPP substrates by purified MMP-14; assay type: biochemical; conditions: versus MMP-2 and MMP-9
Method: (§1) FIG. 7 describes selectivity for substrates for MMP2, 9 and 14 (1 uM peptide 20 nM enzyme). A) MT1 selective RSHPHfeTLY (SEQ ID NO: 19).
(§2) FIG. 8A, FIG. 8B and FIG. 8C describe selectivity for substrate cut with MMP-2, MMP9 and MMP-14.
(§3) To generate new substrates for MMPs, amino acids were substituted at key position at and near the cleavage site based on the following rule derived by recent work by Ratnikov et al^26 that the amino acid at a certain position must improve cleavage by the specific enzyme and reduce cleavage by other related enzymes. For increased specificity, an amino acid should be red for the enzyme of interest compared green for the other enzymes at the same substitution position (FIG. 36A). These substrates will be tested by treating 5 μM peptide with 20 nM of each enzyme for 2 hours and analyse by gel electrophoresis.
(§4) FAM/Cy5 ratiometric versions of RACPPs with these sequences were made and tested to confirm selectivity. The preferred form Cy5/Cy7 ratiometric versions for in vivo testing with a pegylated carrier to help with solubility is currently being synthesized. For MMP 11 a similar approach will be adopted in finding selective substrates.^26.

MMP-2 [1] = biological target: T1, MMP-2 (Homo sapiens, UniProt P08253); experiment: Cleavage of ACPP substrates by purified MMP-2; assay type: biochemical; conditions: versus MMP-9 and MMP-14
T1 sequence (P08253 110-660): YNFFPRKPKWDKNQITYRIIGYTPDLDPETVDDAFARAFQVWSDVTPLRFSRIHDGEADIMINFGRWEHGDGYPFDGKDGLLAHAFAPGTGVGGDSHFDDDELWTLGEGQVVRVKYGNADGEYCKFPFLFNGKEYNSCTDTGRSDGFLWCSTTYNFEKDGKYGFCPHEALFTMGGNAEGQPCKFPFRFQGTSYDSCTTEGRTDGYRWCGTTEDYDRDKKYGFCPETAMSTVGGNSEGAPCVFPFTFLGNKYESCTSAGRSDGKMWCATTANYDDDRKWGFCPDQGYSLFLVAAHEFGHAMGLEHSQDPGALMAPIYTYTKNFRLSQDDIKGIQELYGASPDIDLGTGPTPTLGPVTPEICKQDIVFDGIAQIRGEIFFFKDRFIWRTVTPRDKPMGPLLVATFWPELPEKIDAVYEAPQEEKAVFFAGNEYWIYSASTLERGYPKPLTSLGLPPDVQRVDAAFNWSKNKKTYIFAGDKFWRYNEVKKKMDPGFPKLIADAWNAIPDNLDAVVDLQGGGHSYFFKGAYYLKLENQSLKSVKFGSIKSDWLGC
Method: as §1, §2, §3, §4

MMP-2 [2] = biological target: T1, MMP-2; experiment: Cell uptake after cleavage of linker by MMP-2; assay type: cell-based; conditions: cleaved by MMP-2
Source text: For example, a linker X that includes the amino-acid sequence PLGLAG (SEQ ID NO: 1) may be cleaved by the metalloproteinase enzyme MMP-2 (a major MMP in cancer and inflammation). Cleavage of such a linker X occurs between the central G and L residues, causing cell uptake to increase by 10 to 20-fold. A great deal is known about the substrate preferences of different MMPs, so that linkers X may be designed that are able to bias X to be preferentially sensitive to particular subclasses of MMPs, or to individual members of the large MMP family of proteinases. For example, in some embodiments, linkers X designed to be cleaved by membrane-anchored MMPs are particularly employed because their activity remains localized to the outer surface of the expressing cell. In alternative embodiments, linkers X designed to be cleaved by a soluble secreted MMP are employed where diffusion of cargo C away from the exact location of cleavage may be desired, thereby increasing the spatial distribution of the cargo. Other linkers X cleavable by other MMPs are discussed throughout the application.

MMP9 = MMP9 (Homo sapiens, UniProt P14780); experiment: Cleavage of ACPP substrates by purified MMP-9; assay type: biochemical; conditions: versus MMP-2 and MMP-14
Sequence of MMP9 (P14780 94-707): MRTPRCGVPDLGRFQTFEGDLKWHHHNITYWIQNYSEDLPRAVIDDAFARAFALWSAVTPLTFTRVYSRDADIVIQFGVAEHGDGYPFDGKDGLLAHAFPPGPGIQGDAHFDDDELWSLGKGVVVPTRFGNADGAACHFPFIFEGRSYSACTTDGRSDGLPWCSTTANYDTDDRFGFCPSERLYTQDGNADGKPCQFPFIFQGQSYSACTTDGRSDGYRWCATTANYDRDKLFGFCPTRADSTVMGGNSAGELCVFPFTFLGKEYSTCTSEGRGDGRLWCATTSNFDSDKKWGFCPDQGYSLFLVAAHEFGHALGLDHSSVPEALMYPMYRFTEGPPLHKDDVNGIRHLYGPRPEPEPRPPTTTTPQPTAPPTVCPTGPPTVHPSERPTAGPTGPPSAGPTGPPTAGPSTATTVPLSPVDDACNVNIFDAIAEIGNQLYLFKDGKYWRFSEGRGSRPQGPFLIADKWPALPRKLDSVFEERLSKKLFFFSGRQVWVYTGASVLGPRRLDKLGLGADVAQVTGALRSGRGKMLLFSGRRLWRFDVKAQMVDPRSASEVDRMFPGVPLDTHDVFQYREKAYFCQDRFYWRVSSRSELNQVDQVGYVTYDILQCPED
Method: as §1, §2, §3, §4

MT2-MMP = MT2-MMP (Homo sapiens, UniProt P51511); experiment: Cleavage of RS-(Cit)-G-(homoF)-YLY derivatives by MT2-MMP; assay type: biochemical
Sequence of MT2-MMP (P51511 132-669, species assumed): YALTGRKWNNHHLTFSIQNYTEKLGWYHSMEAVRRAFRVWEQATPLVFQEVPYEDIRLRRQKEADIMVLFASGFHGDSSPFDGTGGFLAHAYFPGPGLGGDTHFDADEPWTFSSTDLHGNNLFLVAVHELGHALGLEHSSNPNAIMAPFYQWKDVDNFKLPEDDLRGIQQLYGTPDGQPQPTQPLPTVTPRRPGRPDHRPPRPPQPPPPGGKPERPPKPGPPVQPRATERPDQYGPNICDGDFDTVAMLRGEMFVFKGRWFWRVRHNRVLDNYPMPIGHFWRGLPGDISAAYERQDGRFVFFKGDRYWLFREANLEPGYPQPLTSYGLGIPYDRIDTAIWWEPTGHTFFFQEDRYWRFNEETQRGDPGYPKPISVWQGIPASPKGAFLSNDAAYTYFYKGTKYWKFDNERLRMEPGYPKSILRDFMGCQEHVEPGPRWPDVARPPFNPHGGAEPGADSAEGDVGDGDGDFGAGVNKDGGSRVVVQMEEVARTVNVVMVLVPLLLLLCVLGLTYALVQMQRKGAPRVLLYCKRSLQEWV

[3] = biological target: urokinase plasminogen activator (uPA) (Homo sapiens, UniProt P00749); experiment: Screen of protease substrates for cleavage by uPA; assay type: biochemical; conditions: substrate in the context of an ACPP
Method: (§5) To generate novel RACPP species that are selective for uPA, a set of protease substrates were screened that were diverse and likely cleaved by serine protease in that they contain either a lysine or arginine residue flanked by diverse amino acids. […] Several other substrates that were reported to be cleaved by uPA were also tested but were not cleaved possible because the constrained structure of the substrate within the context of an ACPP.
To generate novel RACPP species that are specific for uPA, a set of protease substrates were screened that were diverse and likely cleaved by serine protease in that they contain either a lysine or arginine residue flanked by diverse amino acids.

tPA = tPA (Homo sapiens, UniProt P00750); experiment: Screen of protease substrates for cleavage by tPA; assay type: biochemical; conditions: compared with uPA
Sequence of tPA (P00750 36-562, species assumed): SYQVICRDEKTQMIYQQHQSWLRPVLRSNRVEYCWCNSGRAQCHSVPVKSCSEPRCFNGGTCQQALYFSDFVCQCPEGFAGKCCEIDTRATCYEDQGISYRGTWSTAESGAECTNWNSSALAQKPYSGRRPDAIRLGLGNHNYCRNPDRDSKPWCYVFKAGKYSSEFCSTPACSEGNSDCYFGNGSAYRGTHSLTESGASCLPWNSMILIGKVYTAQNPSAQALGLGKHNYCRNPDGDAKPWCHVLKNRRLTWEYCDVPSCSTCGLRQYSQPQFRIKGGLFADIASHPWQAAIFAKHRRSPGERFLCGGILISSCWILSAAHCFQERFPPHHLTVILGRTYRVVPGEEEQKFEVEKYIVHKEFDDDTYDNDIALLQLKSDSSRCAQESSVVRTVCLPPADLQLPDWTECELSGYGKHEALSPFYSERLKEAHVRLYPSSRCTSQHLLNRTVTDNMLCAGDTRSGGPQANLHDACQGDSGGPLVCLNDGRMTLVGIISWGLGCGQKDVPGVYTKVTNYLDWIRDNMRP
Method: as §5

multiple MMPs = experiment: Specificity of first generation cleavable site among MMPs; assay type: biochemical
Source text: In contrast to mRNA expression or copy number detection methods, RACPPs detect in vivo protease activity, thus bypassing the complicated interplay between transcription/translation, pro- and active forms of the enzymes, as well as the presence of inhibitors/activators etc. It was shown that RACPP uptake correlates with tumor burden^15 and with tumor characteristics corresponding to poor survival^18.
RACPPs are capable of monitoring protease activity in real time living animal models of cancer. […] To tease out the involvement of specific individual proteases involved in the various stages of cancer growth, invasion and metastasis, it was sought to identify RACPP cleavable sites that are specific for individual select proteases.

## RSHP[hPhe]TLY
MMP-14
  cleavage by / selectivity for MMP-14 (MT1-MMP): MMP14 selective
MMP-14; listed as RSHPHfeTLY
  cleavage by / selectivity for MMP-14 (MT1-MMP): MT1 selective

## TIAH/LH
MMP-2 [1]
  cleavage by / selectivity for MMP-2: selectively cleaved

## RS-(Cit)-G-(homoF)-YLY
MMP-14
  cleavage by / selectivity for MMP-14 (MT1-MMP): MMP14 selective

## TIAHLA (cleavable linker)
MMP-2 [1]
  cleavage by / selectivity for MMP-2: MMP2 selective

## PLGLAG (cleavable linker)
MMP-2 [2]
  increase of cell uptake after cleavage between the central G and L residues: 10 to 20 fold

## SNPYK-Y (SNPYKY; cleavable linker)
MMP9
  cleavage by / selectivity for MMP9: MMP9 selective
MMP9; listed as SNPYKY
  cleavage by / selectivity for MMP9: selective

## SNPYG-Y (SNPYGY; cleavable linker)
MMP9
  cleavage by / selectivity for MMP9: MMP9 selective

## RS-Q-G-(homoF)-YLY (RSQG[hPhe]YLY)
MT2-MMP
  cleavage by MT2-MMP: significant cleavage

## TLSE-LH (TLSELH; cleavable linker)
MMP-2 [1]
  cleavage by / selectivity for MMP-2: MMP-2 selective

## YGRAAA (cleavable linker)
[3]
  cleavage by uPA: efficiently cleaved; also recorded: increase in Cy5/Cy7 signal ratio
tPA
  cleavage by tPA: to a lesser extent

## PLGC(Me)AG
Multiple MMPs
  cleavage by multiple MMPs (lack of specificity): cut by multiple MMPs
Multiple MMPs; listed as PLGC(me)AG
  cleavage by multiple MMPs (lack of specificity): cleaved by multiple proteases

## RSHG-(homoF)-FLY (RSHG[hPhe]FLY)
MMP-14
  cleavage by / selectivity for MMP-14 (MT1-MMP): highly selective and efficiently cleaved
MMP-14; listed as RSHG(Hfe)FLY
  cleavage by / selectivity for MMP-14 (MT1-MMP): selective
